Results taken from patent US7432342B2, “Kinase anchor protein muteins, peptides thereof and related documents” (Sequenom, Inc., priority 2002, dated 2008).
Read-outs that look alike come from different tables or passages of the source. Blank lines part the entries; values can stand above or below the molecule they belong to. Ends that are not written are not given here. Peptide text beside a SMILES is read from it.

How the values were obtained:
[1] = molecular target: RIα (Bos taurus, UniProt P00514); assay: Fluorescence anisotropy binding of labeled 27-mer AKB Ile/Val peptides (Example 2); conditions: in vitro; 10 nM labeled peptide
Chain of RIα (P00514 whole entry, the tested form may be a part, canonical isoform): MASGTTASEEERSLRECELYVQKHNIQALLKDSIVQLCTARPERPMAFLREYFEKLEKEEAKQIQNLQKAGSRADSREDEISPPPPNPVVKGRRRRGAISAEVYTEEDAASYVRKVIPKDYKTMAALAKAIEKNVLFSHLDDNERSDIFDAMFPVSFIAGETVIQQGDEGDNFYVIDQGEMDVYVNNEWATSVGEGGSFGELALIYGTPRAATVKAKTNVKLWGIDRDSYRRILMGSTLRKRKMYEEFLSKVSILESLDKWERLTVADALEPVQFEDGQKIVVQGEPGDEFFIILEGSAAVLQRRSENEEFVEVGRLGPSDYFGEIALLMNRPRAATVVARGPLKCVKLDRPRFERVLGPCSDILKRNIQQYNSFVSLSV
Protocol: To assess the magnitude of the affinity difference, binding of both Ile/Val variants to the R-subunit isoforms of PKA was analyzed in a quantitative assay. Twenty-seven residue peptides containing the two AKB domain Ile/Val variants (SEQ ID NOs:1 and 2, respectively) of D-AKAP2 with a C-terminal cysteine were synthesized by SynPep Corporation (Dublin, Calif.). The peptides were HPLC (high performance liquid chromatography) purified and mass spectrometry checked. Both peptides were labeled with tetramethyl rhodamine-5-maleiamide (Molecular Probes, Eugene, Oreg.) at the cysteine residue and HPLC purified. Increasing concentrations of RIα and RIIβ, respectively, were equilibrated with 10 nM of peptide for at least one hour at room temperature in 10 mM HEPES, 150 mM NaCl, 3 mM EDTA, 0.005% polysorbate 20. […] Fluorescence anisotropy was monitored using a Fluoromax-2 (Spex, Jobin Yvon Horiba, Edison, N.J.) equipped with polarizers. The fluorophore was excited at 541 nm (5-10 nm bandpass) and emission was monitored at 575 nm (5-10 nm bandpass). […]
Peptides of each AKB Ile/Val variant (SEQ ID NOs:1 and 2) were synthesized and fluorescence-labeled. Binding of the labeled peptides to the regulatory subunit isoforms was monitored using a fluorescence assay in which binding of the peptide was proportional to an increase in steady state anisotropy. […]

[2] = molecular target: PKA-RIα-GFP (Bos taurus, UniProt P00514); assay: Surface plasmon resonance (BIAcore CM5 chips); assay type: binding
Chain of PKA-RIα-GFP (P00514 1-109 limits assumed): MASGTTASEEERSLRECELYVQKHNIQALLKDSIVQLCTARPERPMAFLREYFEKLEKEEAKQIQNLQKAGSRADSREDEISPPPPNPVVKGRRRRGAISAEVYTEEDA
Protocol: Two 27-mer peptides representing the Ile and Val variants (SEQ ID NOs:1 and 2, respectively) were synthesized and purified in milligram quantities and the affinity to PKA-RIα-GFP was determined using well-known surface plasmon resonance in combination with BIAcore chips (see, e.g., Current Opinion in Biotechnology (1997) 8:50-57; Current Opinion in Biotechnology (1994) 5:389-395; Current Opinion in Biotechnology (1994) 5:65-71; Structure (1995) 3:969; Current Biology (1995) pp. 699-705; Analytical Biochemistry (1991) 201:197-210; and macinfac.bio.unc.edu/biacore.html). PKA-RIα-GFP was coupled to BIAcore CM5 chips. BSA was immobilized on control chips.
The affinities in this assay are lower compared to those determined by fluorescence anisotropy. The most likely reason is that in this study the signal difference between the flow cell with the regulatory subunit and the control protein BSA was measured, such that slight unspecific binding to BSA directly reduces the apparent affinity. However, similar to previous results, an affinity difference of PKA-RIα-GFP to both allelic 27-mer peptides was observed (Table 6).

[3] = molecular target: PKA-RIIα-GFP (Mus musculus, UniProt P12367); assay: ELISA of biotinylated 27-mer peptide immobilized on neutravidin plates; assay type: binding; conditions: 25 μM peptide on neutravidin; 0-5 μg/ml PKA-RIIα-GFP
Chain of PKA-RIIα-GFP (P12367 1-46): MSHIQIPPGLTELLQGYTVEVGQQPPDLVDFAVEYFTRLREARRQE
Protocol: The peptide biotin-bA-bA-[…] (SEQ ID NO:14) was synthesized as a C-terminal amide in milligram quantity and purified to a 96% purity by HPLC. Its identity was confirmed by MALDI TOF (matrix-assisted laser desorption ionization time-of-flight) mass spectrometry. The peptide was immobilized in neutravidin (NA)-coated 96-well microtiter plates and incubated with various concentrations of PKA-RIIα-GFP. Binding was detected using an anti-GFP antibody (3E6, Quantum Biotechnologies, QBiogene, Carlsbad, Calif.) in combination with a second horseradish peroxidase labeled antibody. Microtiterplates were coated with 40 μg/ml Neutravidin (NA) and subsequently incubated with 25 μM peptide. Various concentrations (0-5 μg/ml) of PKA-RIIα-GFP were added. Bound subunit was detected using a mouse anti-GFP antibody (1 μg/ml) and an anti-mouse-IgG-antibody labeled with peroxidase (1 μg/ml). Negative controls were utilized that contained either a microtiter plate with only neutravidine or only peptide, or neither one.

[4] = molecular target: RIα isoform of PKA (Bos taurus, UniProt P00514); assay: In vitro pull-down assay of GST-fused AKB domain variants (Example 1); assay type: binding; conditions: GST fusion of 40 C-terminal residues of D-AKAP2; RIα 20 μM; mouse and human AKB domains
Chain of RIα isoform of PKA (P00514 whole entry, the tested form may be a part, canonical isoform): as the sequence (P00514 whole entry, the tested form may be a part, canonical isoform) above
Text: Binding of each AKB domain variant to PKA was first examined using an in vitro pull-down assay, in which the 40 C-terminal residues of D-AKAP2 (amino acids 623-662 of SEQ ID NO:64) containing the AKB were fused to glutathione-S-transferase (GST). The GST fusion constructs were made by fusing the 40 C-terminal amino acids of D-AKAP2 to the C-terminus of GST and subcloning between the NdeI and BamHI sites of pRSET (Invitrogen, Carlsbad, Calif.). The constructs were transfected into BL21 cells and expressed for 6 hours at 20° C. The cells were lysed in PBS with 5 mM BME and 0.1% Triton X-100. 3 μl of supernatant were added to 200 μl of this buffer and 10 μl glutathione beads. After three washes, RIα (53 μg, 20 μM) and RIIα (2.4 μg, 2 μM) were added to the beads, respectively, and the total volume was adjusted to 40 μl. After incubating for 30 min at 4° C., the beads were washed three times, and separated in a 10% acrylamide gel.

[5] = molecular target: T1, RIα-D/D-GFP (Bos taurus, UniProt P00514); assay: Co-localization of PKA regulatory domain with mitochondria-targeted AKB domain in 10T(1/2) cells (Example 3); assay type: cell-based; conditions: C-terminal 156 residues of D-AKAP2 fused to D-AKAP1 mitochondrial anchoring domain
T1 construct: The dimerization/docking (D/D) domain of RIα and full-length RIIα were each fused with green fluorescent protein (GFP); expressed in transfected cells; host or cells: 10T(1/2) cells
T1 sequence (P00514 2-135 limits assumed): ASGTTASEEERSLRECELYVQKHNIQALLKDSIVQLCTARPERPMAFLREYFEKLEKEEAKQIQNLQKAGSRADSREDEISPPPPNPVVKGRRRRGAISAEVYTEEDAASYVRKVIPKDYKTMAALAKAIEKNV
Text: The 30 amino acid mitochondrial anchoring domain of D-AKAP1 (Chen et al. (1997) J. Biol. Chem., 272:15247-57; and Huang et al. (1997) J. Biol. Chem., 272:8057-8064) was fused to the C-terminal 156 residues of mouse (amino acids 217-372 of SEQ ID NO:55) and human (amino acids 507-662 of SEQ ID NO:64) D-AKAP2, respectively, followed by a Flag-tag and subcloned into pcDNA4 (Invitrogen, Carlsbad, Calif.). The dimerization/docking (D/D) domain of RIα and full-length RIIα were each fused with green fluorescent protein (GFP) and cloned into pEGFPN1 (Clontech, Palo Alto, Calif.). […] The AKB domain was detected by immuno-staining with monoclonal antibodies against the Flag-tag (Kodak, Rochester, N.Y.) followed by rhodamine-conjugated secondary antibody (Jackson Lab, Bar Harbor, Me.). […]
In this assay, the AKB domain within the C-terminal 156 residues of D-AKAP2 from mouse (Val) and human (Ile) was fused to the mitochondrial anchoring domain from D-AKAP1 and tethered to the outer mitochondrial membrane (Chen et al. (1997) J. Biol. Chem., 272:15247-15257; and Huang et al. (1997) J. Biol. Chem., 272:8057-8064). The binding of the AKB domain with the PKA regulatory domains was detected as the co-transfected PKA regulatory domains co-localized to the mitochondria. […]

Molecule: VQGNTDEAQEELAWKIAKMIVSDVMQQ (not fully specified (N-terminus); listed as Homo sapiens) [SEQ ID NO:2]
binding affinity to RIα compared to the Ile variant [1]: nearly three-fold increase in binding affinity

Kd ([2]; PKA-RIα-GFP coupled to chip (1681 RU), BSA control chip, read-out: PKA-RIα-GFP binding affinity): 860 nM
Molecule: CC[C@H](C)[C@H](NC(=O)[C@H](CCCCN)NC(=O)[C@H](Cc1c[nH]c2ccccc12)NC(=O)[C@H](C)NC(=O)[C@H](CC(C)C)NC(=O)[C@H](CCC(=O)O)NC(=O)[C@H](CCC(=O)O)NC(=O)[C@H](CCC(N)=O)NC(=O)[C@H](C)NC(=O)[C@H](CCC(=O)O)NC(=O)[C@H](CC(=O)O)NC(=O)[C@@H](NC(=O)[C@H](CC(N)=O)NC(=O)CNC(=O)[C@H](CCC(N)=O)NC(=O)[C@@H](NC(C)=O)C(C)C)[C@@H](C)O)C(=O)N[C@@H](C)C(=O)N[C@@H](CCCCN)C(=O)N[C@@H](CCSC)C(=O)N[C@H](C(=O)N[C@H](C(=O)N[C@@H](CO)C(=O)N[C@@H](CC(=O)O)C(=O)N[C@H](C(=O)N[C@@H](CCSC)C(=O)N[C@@H](CCC(N)=O)C(=O)N[C@@H](CCC(N)=O)C(N)=O)[C@@H](C)CC)C(C)C)[C@@H](C)CC [SEQ ID NO:16] (Ac-VQGNTDEAQEELAWKIAKMIVSDIMQQ-NH2)

Molecule: biotin-bA-bA-VQGNTDEAQEELAWKIAKMIVSDIMQQ [SEQ ID NO:14]
binding to PKA-RIIα in ELISA [3]: able to bind to PKA-RIIα

binding affinity to RIα compared to the Ile variant [1]: three-fold tighter
binding of the RIα isoform of PKA to the AKB variant [4]: significantly higher affinity
Molecule: Val variant: D-AKAP2 AKB domain with Val at amino acid 646 (SEQ ID NO:65), tested as GST fusion or mitochondria-targeted fusion construct (VQGNTDEAQEELAWKIAKMIVSDVMQQAQYDQPLEKSTKL; not fully specified)
targeting of RIα to the mitochondria [5]: effectively targeted RIα to the mitochondria

Molecule: CC[C@H](C)[C@H](NC(=O)[C@H](CCCCN)NC(=O)[C@H](Cc1c[nH]c2ccccc12)NC(=O)[C@H](C)NC(=O)[C@H](CC(C)C)NC(=O)[C@H](CCC(=O)O)NC(=O)[C@H](CCC(=O)O)NC(=O)[C@H](CCC(N)=O)NC(=O)[C@H](C)NC(=O)[C@H](CCC(=O)O)NC(=O)[C@H](CC(=O)O)NC(=O)[C@@H](NC(=O)[C@H](CC(N)=O)NC(=O)CNC(=O)[C@H](CCC(N)=O)NC(=O)[C@@H](NC(C)=O)C(C)C)[C@@H](C)O)C(=O)N[C@@H](C)C(=O)N[C@@H](CCCCN)C(=O)N[C@@H](CCSC)C(=O)N[C@H](C(=O)N[C@H](C(=O)N[C@@H](CO)C(=O)N[C@@H](CC(=O)O)C(=O)N[C@H](C(=O)N[C@@H](CCSC)C(=O)N[C@@H](CCC(N)=O)C(=O)N[C@@H](CCC(N)=O)C(N)=O)C(C)C)C(C)C)[C@@H](C)CC [SEQ ID NO:15] (Ac-VQGNTDEAQEELAWKIAKMIVSDVMQQ-NH2)
Kd [2]: 500 nM
